Measured values published in patent US20220127628A1.
Several values for one entry are separate records, joined by “and”; a condition that tells them apart may be missing. Equal values may be shown once.

Biological target: recombinant NetB (wild type NetB) toxin of C. perfringens (Clostridium perfringens)
Test: cell-based or functional assay

B1: VHH ENB-1D11 (VHH)
VHH: EVQLVESGGGLVQTGGSLRLSCTASGTIDMTYGLIWYRQAPGKERELVASIRRDGRTNYADSVKGRFTISIDNAKNSIHLQMNSLKPDDTARYYCNSPYHALWGQGTQVTVSS
- lowest VHH concentration neutralizing NetB haemolysis: 1.25 µM and 0.625 µM

B2: VHH ENB-1A4 (VHH)
VHH: EVQLVESGGGLVQAGGSLRLSCAASGSIFSTNVMGWYRQAPGKQREFVAGITIGGTARYPDSVKGRFTISRDNTQNTVYLQMNNLKPEDTAVYYCNAVLPSDQRRWSWGQGTQVTVSS
- lowest VHH concentration neutralizing NetB haemolysis: 1.25 µM and 0.625 µM
